Laboratory results from article PMC7971878.

How the values were obtained:
[1] = target: CSFV sE2 (soluble E2 protein, 693-1020aa) with (His)6 tag (classical swine fever virus); assay: SPR; Biacore […] (20 μg/ml) […]; 20 mM Hepes, 150 mM NaCl, 0.005% Tween 20, pH 7.4, […]; 1:1 binding model
[2] = target: CSFV sE2 (soluble E2 protein, 693-1020aa) with (His)6 tag (classical swine fever virus); assay: SPR; Biacore T100; […] (20 μg/ml) […]; 20 mM Hepes, 150 mM NaCl, 0.005% Tween 20, pH 7.4, […]; 1:1 binding model

soluble metalloproteinase domain of pig ADAM17 (sMP) with (His)6 tag (from UniProt O77636 18-477) (domain or fragment)
Kd [1]: 3200 nM
Kd [2]: 100 nM
